Patent publication US20240084044A1, “Heteromultivalent Nucleic Acid Scaffolds and Uses Thereof” (George Mason University, priority 2022, published 2024)
Bridges are numbered along the chain shown (N, C = ends). Roman numbers before positions name the chains, in order.

What was measured:
[1] = target: T1, IL-1RAcP/ST2/IL-33 ternary complex (Homo sapiens, UniProt O95760+Q01638); assay: Crosslinking assay of ternary complex (trimer) formation with recombinant IL-33, ST2 and IL-1RAcP; format: biochemical
T1 construct: included the extracellular domains, K19-F328 and S21-E359, respectively; the cleaved mature proteins, S112-T270, A117-S269, and R2-S310, respectively; purchased Sino Biologicals ST2 10105-HCCH; IL1RAcP 10121-H08H; IL-33 10368-HNAE; host or cells: ST2 and IL1RAcP: HEK293; IL-33: E. coli
T1 sequence (Q01638 19-328 isoform Q01638-2): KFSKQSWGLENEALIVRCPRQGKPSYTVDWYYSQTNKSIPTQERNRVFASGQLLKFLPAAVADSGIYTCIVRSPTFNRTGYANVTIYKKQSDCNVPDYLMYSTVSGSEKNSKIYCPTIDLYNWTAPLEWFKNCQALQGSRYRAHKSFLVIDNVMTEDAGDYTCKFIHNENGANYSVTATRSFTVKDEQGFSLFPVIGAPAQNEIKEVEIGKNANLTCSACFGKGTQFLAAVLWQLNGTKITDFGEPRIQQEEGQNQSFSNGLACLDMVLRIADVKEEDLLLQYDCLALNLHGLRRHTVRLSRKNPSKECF
T1 sequence (O95760 112-270): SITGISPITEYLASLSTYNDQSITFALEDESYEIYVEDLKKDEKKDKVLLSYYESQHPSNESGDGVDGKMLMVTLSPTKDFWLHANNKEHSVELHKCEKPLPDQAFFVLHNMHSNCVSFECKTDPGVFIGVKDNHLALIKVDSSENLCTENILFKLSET
Experimental: MSTOP dose curves were performed with a crosslinking assay. Recombinant IL-33, ST2, and IL-1RAcP were combined as described above and incubated at RT for 30 m in PBS or treated with 10 μM of 3WJ scaffold, WT peptides, or MSTOP in a dose range of 10 μM to 1 nM (1:10 serial dilution). Following incubation, 1 μL of 2.5 mM Disuccinimidyl suberate (DSS, 83 μM) homobifunctional crosslinker was added and reactions were incubated for […] at RT., then quenched with 1 μL of 1 M Tris-HCl. Samples were then prepared for electrophoresis.
The native receptor has a KD value of 10 μM illustrative of the fact that the interaction is weak and transient (FIG. 3A). […] The prototype MSTOP was finally assessed for bioactivity via prevention of IL-33/ST2 signaling activation. The MSTOP was first tested in vitro with recombinant ST2, IL-33, and IL-1RAcP incubated together in its endogenous 1:1:1 stoichiometry for 30 minutes. Reactions were then treated with DSS homobifunctional NETS-based crosslinker (final concentration ˜85 μM) to tether formed trimers. Trimer resolved at the predicted 120 kDa in semi-native conditions, while unbound IL-1RAcP resolved at 50 kDa. Quantification of IL-1RAcP at 120 kDa was normalized against total lane IL-1RAcP input, with the untreated trimer control representing 100% trimerization. […]

HEK-Blue cells = assay: CellTiterGlo cell viability / cellular cytotoxicity assay; format: cell-based, human

reduction of trimer formation ([1]; 1 μM treatment): approximately 40% | reduction in trimer formation ([1]; 10 μM treatment, DSS crosslinking western blot): 70%
Substance: MSTOP: 3WJ DNA scaffold whose three DBCO staple strands carry cyclized azidolysine IL-1RAcP hotspot peptides; decoy for IL-33/ST2 (peptide 1 Ac-CKEYGIQRITC-NH2; peptide 2 Ac-AKVGSPKNAVPPC-NH2; peptide 3 Ac-CKGEVAKAAKVKC-NH2; disulfide I:1-I:11, III:1-III:13; thioether II:1-II:13; not fully specified (some residues); also: three peptides held on a 3-way junction DNA scaffold via DBCO staple strands)
cell viability (HEK-Blue cells; 10 μM, CellTiterGlo): did not decrease cell viability | cellular cytotoxicity (HEK-Blue cells; FIG. 4F, concentrations in μM): not toxic
